We go through two molecules from patent US20260042834A1, “ANTI-CORTICOTROPIN-RELEASING HORMONE ANTIBODIES AND POLYCYSTIC OVARY SYNDROME” (HBM ALPHA THERAPEUTICS, INC., priority 2022, published 2026).

The test system of assay [1] is restraint-induced ACTH and corticosterone. As to the kind of experiment: Wildtype mice restraint-stress model (ACTH and corticosterone). The format is in vivo, mouse. Here is the method: 8-10 week old wildtype female C57BL/6 mice were obtained from Charles River Laboratories. Mrap1 KO mice were obtained from Queen Mary University of London, UK. SSR125543A, a small molecule CRHR1 antagonist, was obtained from Axon Medchem (Cat #Axon 1799). Mouse Corticosterone (55-Corms-E01) and adrenocorticotropic hormone (ACTH) ELISA kits (21-ACTHU-E01) were obtained from ALPCO, USA. All procedures were carried out in accordance with the Guide for the Care and Use of Laboratory Animals of the National Institutes of Health. Protocols were approved by Charles River Laboratories Institutional Animal Care and Use Committee (IACUC).
To determine the effect of nonpainful physical restraint upon stress responses, mice were restrained in 50 ml polypropylene ventilated tubes in which the tip was cut off with a razor blade to allow the mouse to breathe easily for 15-20 minutes. A mouse was directed to the open tube and crawled in. A piece of paper towel was put behind the mouse so that it could not back out, and the cap was screwed on. The mouse was placed back in its cage, ventral size down on the bedding. This stressor is not considered painful, as mice are confined to a limited space (in a ventilated restraint tube) but not in an unnatural physical position. The investigator was present in the room during the entire procedure. At the end of the procedure, the mouse was removed by the tail.
On day 1, each mouse was injected intraperitoneally with 20 mg/kg of anti-CRH mAbs, hIgG1 or PBS (5 mice per group). On day 2 or 3, and 14 each mouse was subjected to physical restraint-stress described above for 15 or 20 min. Immediately after restraint-stress, 200 μl of blood was collected in EDTA tubes from the submandibular vein of each mouse. Plasma was separated using a refrigerated centrifuge (4° C. at 500×g for 10 min) and snap-frozen in dry ice for subsequent ACTH and corticosterone ELISA measurement.
On day 1, one half of mice were injected IP with 20 mg/kg of anti-CRH Ab or hIgG1 (5 mice per group). On day 3, the other half of mice were injected IP with 30 mg/kg of SSR125543A or solvent (5 mice each group). Two hours later, four groups of mice were subjected to restraint-stress as described above for 20 min. Immediately after restraint-stress, 200 μl of blood was collected in EDTA tubes from the submandibular vein of each mouse in all four groups. Plasma was separated as described above and snap-frozen in dry ice for subsequent ACTH and corticosterone ELISA measurement. On day 4, SSR125543A or solvent-treated mice were subjected to a second round of restraint stress for 20 min and plasma was collected. Two weeks later, anti-CRH mAb- or hIgG1-treated mice were subjected to physical stress for 20 min followed by plasma collection.

The target in assay [2] is T1, human UCN1 (Homo sapiens, UniProt P55089).
T1 sequence (P55089 83-122 limits assumed): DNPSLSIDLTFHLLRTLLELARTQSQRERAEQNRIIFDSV
Put plainly: Human UCN1 ELISA binding. Particulars: in words. Here is the method: Streptavidin (Thermo, Cat: 21125) was diluted in PBS to a concentration of 2 μg/ml. 100 μl of diluted streptavidin was added per well to ELISA microplates, and the plates were incubated overnight at 4° C. Plates were blocked with ELISA blocking solution (containing 2% w/v BSA, 0.05% (v/v) Tween-20, pH 7.4 PBS buffer) at 37° C. for 1 hour, and then incubated with 0.5 μg/mL CRH (NT biotin), 0.5 μg/mL CRH (CT biotin), 1 μg/mL human UCN1 (NT biotin), or 1 μg/mL human UCN1 (CT biotin) for 1 hour at 37° C. Plates were then washed and incubated with diluted anti-CRH antibody (Ab) at 15 μg/ml (100 nM, 10 diluted, 8 points) for 1 hour at 37° C. Subsequently, plates were washed and incubated with HRP-conjugated goat anti-human IgG (H+L) antibody (Jackson, Cat: 109-035-088) at 37° C. for 1 hour. […] 100 μL of ELISA stopping solution (Solarbio, Cat #: C1058) was added to terminate the reaction, and the optical density at 450 nm (OD450 nm) was determined by an ELISA plate reader (Molecular Devices, Spectra max 384 plus).
Streptavidin (Thermo, Cat: 21125) was diluted in PBS with a concentration of 2 μg/mL. […] 100 μL of ELISA stopping solution (Solarbio, Cat #: C1058) was then added to terminate the reaction, and the OD450 nm was determined by an ELISA plate reader (Molecular Devices, Spectra max 384 plus).
In general terms: In an ELISA, binding on a coated surface is turned into a signal by an enzyme label.

Where a chain is given by its changes, count along the chain named.

B1: PR302334-24: humanized variant of Series 9 mAb PR302334; VH SEQ ID NO: 275, VL SEQ ID NO: 328 (antibody, V domains shown)
VH: EVQLVESGGGLVKPGGSLRLSCAASGFTFSTYAMSWVRQAPGKGLEWVASIRSGGTTYYPDSVKGRFTISRDNAKNSLYLQMNSLRAEDTAVYYCTRGIDWGQGTTVTVSS
VL: DIVMTQSPDSLAVSLGERATINCKASQSVNNDVAWYQQKPGQPPRLLIYYASNRYTGVPDRFSGSGSGTDFTLTISSLQAEDLAVYFCQQDYSSWTFGGGTKVEIK
modifications: PR302334-16 VH, PR302334-24 VH, PR302334-25 VH; PR302334-10 VL, PR302334-24 VL, PR302334-26 VL, PR302334-4 VL
On to B1, for which, in assay [1] (doses not given), the “efficacy versus SSR125543A at inhibiting restraint induced ACTH and corticosterone” value is listed as “superior efficacy”. In assay [1] (restraint), the “duration of the effects” value is reported as “at least 17 days”; the “inhibition of ACTH and corticosterone versus SSR125543A” value was “more complete inhibition”. In assay [1] (restraint, mAb 20 mg/kg), the “efficacy in reducing plasma ACTH and corticosterone levels versus SSR125543A at 30 mg/kg” value is “more efficacious”.

B2: PR302334-26: humanized variant of Series 9 mAb PR302334; VH SEQ ID NO: 277, VL SEQ ID NO: 328 (antibody, V domains shown)
VH: B1 VH with K13Q, A74S
VL: B1 VL
modifications: PR302334-18 VH, PR302334-26 VH, PR302334-27 VH; PR302334-10 VL, PR302334-24 VL, PR302334-26 VL, PR302334-4 VL
With B2, the “binding to human UCN1 peptides in ELISA” value in assay [2] is “except for PR302334-26, bound to human UCN1”.
